Source: patent US6790831B2, “Systemic carnitine deficiency gene and use thereof” (Chugai Seiyaku Kabushiki Kaisha, priority 1998, dated 2004)
Entries after “also recorded” stand apart in the source; their conditions may differ.

System: HEK293 cells
Assay: carnitine transporting activity assay of mouse OCTN2 expressed from plasmid DNA in HEK293 cells
Type: cell-based
Conditions: plasmid DNA expressing the protein introduced into HEK293 cells; Mock = cDNA-non-containing vector; FIG. 3
Experimental: Another embodiment of the therapeutic drug for systemic carnitine deficiency uses a compound that enhances the activity of the OCTN2 protein as the active ingredient. Such a compound can be screened as follows. For example, a plasmid expressing the OCTN2 protein is constructed, and this is introduced into HEK293 cells by the calcium phosphate method. Radiolabeled carnitine and a test compound are added to this transformant and the carnitine transporting activity into the cells is determined. A compound that can enhance the carnitine transporting activity is selected by comparing with the activity of the OCTN2 protein in the absence of the test compound. See Japanese Patent Application Hei 9-260972 and Hei 10-156660 for the detailed method.
Next, the effect this mutation has on the carnitine transporting activity was examined. Plasmid DNA expressing wild-type mouse OCTN2, and those expressing mutated OCTN2 were separately introduced into HEK293 cells, and then, carnitine transporting ability was measured similar to the assay of human OCTN2 described in Japanese Patent Application Hei 10-156660 (FIG. 3). […] However, both proteins were confirmed to be expressed at a similar amount by a western blotting using an antibody against the c-myc epitope sequence (NH2—EQKLISEEDL—COOH; SEQ ID NO:26) added to the C terminus (FIG. 4).

Molecule | carnitine transporting activity
wild-type mouse OCTN2: mouse OCTN2 protein, amino acid sequence SEQ ID NO:3, sodium-ion dependent carnitine transporter (protein) MRDYDEVTAFLGEWGPFQRLIFFLLSASIIPNGFNGMSIVFLAGTPEHRCLVPHTVNLSSAWRNHSIPLETKDGRQVPQKCRRYRLATIANFSELGLEPGRDVDLEQLEQESCLDGWEYDKDVFLSTIVTEWDLVCKDDWKAPLTTSLFFVGVLMGSFISGQLSDRFGRKNVLFLTMGMQTGFSFLQVFSVNFEMFTVLFVLVGMGQISNYVAAFVLGTEILSKSIRIIFATLGVCIFYAFGFMVLPLFAYFIRDWRMLLLALTVPGVLCGALWWFIPESPRWLISQGRIKEAEVIIRKAAKINGIVAPSTIFDPSELQDLNSTKPQLHHIYDLIRTRNIRVITIMSIILWLTISVGYFGLSLDTPNLHGDIYVNCFLLAAVEVPAYVLAWLLLQYLPRRYSISAALFLGGSVLLFMQLVPSELFYLSTALVMVGKFGITSAYSMVYVYTAELYPTVVRNMGVGVSSTASRLGSILSPYFVYLGAYDRFLPYILMGSLTILTAILTLFFPESFGVPLPDTIDQMLRVKGIKQWQIQSQTRMQKDGEESPTVLKSTAF | sodium-dependent carnitine transporting activity is seen; also recorded: shows a carnitine transporting activity similar to human OCTN2
mutated OCTN2: jvs mouse OCTN2 in which the 352nd leucine (CTG) is mutated to arginine (CGG) (protein, UniProt Q9Z0E8 1-557, looked up, variant L352R, full-length) MRDYDEVTAFLGEWGPFQRLIFFLLSASIIPNGFNGMSIVFLAGTPEHRCLVPHTVNLSSAWRNHSIPLETKDGRQVPQKCRRYRLATIANFSELGLEPGRDVDLEQLEQESCLDGWEYDKDVFLSTIVTEWDLVCKDDWKAPLTTSLFFVGVLMGSFISGQLSDRFGRKNVLFLTMGMQTGFSFLQVFSVNFEMFTVLFVLVGMGQISNYVAAFVLGTEILSKSIRIIFATLGVCIFYAFGFMVLPLFAYFIRDWRMLLLALTVPGVLCGALWWFIPESPRWLISQGRIKEAEVIIRKAAKINGIVAPSTIFDPSELQDLNSTKPQLHHIYDLIRTRNIRVITIMSIILWRTISVGYFGLSLDTPNLHGDIYVNCFLLAAVEVPAYVLAWLLLQYLPRRYSISAALFLGGSVLLFMQLVPSELFYLSTALVMVGKFGITSAYSMVYVYTAELYPTVVRNMGVGVSSTASRLGSILSPYFVYLGAYDRFLPYILMGSLTILTAILTLFFPESFGVPLPDTIDQMLRVKGIKQWQIQSQTRMQKDGEESPTVLKSTAF | absolutely no activity
